According to patent US20210380703A1:

Target: Human Fc (human)
Experiment: ELISA, negative control

| Binder | optical density |
| --- | --- |
| 370_D11 (antibody, V domains shown) VH: EVQLLESGGGLVQPGGSLRLSCAASGFTFDSYSMNWVRQAPGKGLEWVSGINYNGGYTGYADSVKGRFTISRDNSKNTLYLQMNSLRAEDTAVYYCARSANWHDTALDYWGQGTLVTVSS VL: DIQMTQSPSSLSASVGDRVTITCRASQSIVSYLNWYQQKPGKAPKLLIYAATSRASGVPSRFSGSGSGTDFTLTISSLQPEDFATYYCQQSYDTPLTFGGGTKVEIK | 0.34 OD |
| 371_A06 (antibody, V domains shown) VH: EVQLLESGGGLVQPGGSLRLSCAASGFTFSSYGMNWVRQAPGKGLEWVAGINYNGGYTSYADSVKGRFTISRDNSKNTLYLQMNSLRAEDTAVYYCARSANWHDTALDYWGQGTLVTVSS VL: DIQMTQSPSSLSASVGDRVTITCRASQSILTYLNWYQQKPGKAPKLVIYAATSRHSGVPSRFSGSGSGTDFTLTISSLQPEDFATYYCQQSYDSPLTFGGGTKVEIK | 0.337 OD |
| 370_G02 (antibody, V domains shown) VH: EVQLLESGGGLVQPGGSLRLSCAASGFTFSDYSMNWVRQAPGKGLEWVANINYNGGYKGYADSVKGRFTISRDNSKNTLYLQMNSLRAEDTAVYYCARSANWHDTALDYWGQGTLVTVSS VL: DIQMTQSPSSLSASVGDRVTITCRASQSIVSYLNWYQQKPGKAPKLLIYAATSRHSGVPSRFSGSGSGTDFTLTISSLQPEDFATYYCQQSYDSPLTFGGGTKVEIK | 0.388 OD |
| 370_G03 (antibody, V domains shown) VH: EVQLLESGGGLVQPGGSLRLSCAASGFTFSSYSMNWVRQAPGKGLEWVANINYNGGYTGYADSVKGRFTISRDNSKNTLYLQMNSLRAEDTAVYYCARSANWHDTALDYWGQGTLVTVSS VL: DIQMTQSPSSLSASVGDRVTITCRASQSILTYVNWYQQKPGKAPKLVIYATTSRASGVPSRFSGSGSGTDFTLTISSLQPEDFATYYCQQSYNNPLTFGGGTKVEIK | 0.421 OD |
| 371_B07 (antibody, V domains shown) VH: EVQLLESGGGLVQPGGSLRLSCAASGFTFDSYSMNWVRQAPGKGLEWVAGINYNGGYTSYADSVKGRFTISRDNSKNTLYLQMNSLRAEDTAVYYCARSANWHDTALDYWGQGTLVTVSS VL: DIQMTQSPSSLSASVGDRVTITCRASQSILTYVNWYQQKPGKAPKLLIYAATSRASGVPSRFSGSGSGTDFTLTISSLQPEDFATYYCQQSYELPLTFGGGTKVEIK | 0.308 OD |
| 371_B06 (antibody, V domains shown) VH: EVQLLESGGGLVQPGGSLRLSCAASGFTFDSYSMNWVRQAPGKGLEWVAGINYNGGYKSYADSVKGRFTISRDNSKNTLYLQMNSLRAEDTAVYYCARSANWHDTALDYWGQGTLVTVSS VL: DIQMTQSPSSLSASVGDRVTITCRASQSILTYVNWYQQKPGKAPKLVIYAATSRHSGVPSRFSGSGSGTDFTLTISSLQPEDFATYYCQQSYNLPLTFGGGTKVEIK | 0.356 OD |
| 370_F05 (antibody, V domains shown) VH: EVQLLESGGGLVQPGGSLRLSCAASGFTFSSYGMNWVRQAPGKGLEWVSGINYNSGYTSYADSVKGRFTISRDNSKNTLYLQMNSLRAEDTAVYYCARSANWHDTALDYWGQGTLVTVSS VL: DIQMTQSPSSLSASVGDRVTITCRASQSIVSYVNWYQQKPGKAPKLVIYAATSRASGVPSRFSGSGSGTDFTLTISSLQPEDFATYYCQQSYETPLTFGGGTKVEIK | 0.406 OD |
| 370_G10 (antibody, V domains shown) VH: EVQLLESGGGLVQPGGSLRLSCAASGFTFSDYGMNWVRQAPGKGLEWVSGINYNSGYTSYADSVKGRFTISRDNSKNTLYLQMNSLRAEDTAVYYCARSANWHDTALDYWGQGTLVTVSS VL: DIQMTQSPSSLSASVGDRVTITCRASQSISSYLNWYQQKPGKAPKLLIYVVNNRASGVPSRFSGSGSGTDFTLTISSLQPEDFATYYCQQSYENPLTFGGGTKVEIK | 0.315 OD |
| 370_E03 (antibody, V domains shown) VH: EVQLLESGGGLVQPGGSLRLSCAASGFTFSSYGMNWVRQAPGKGLEWVSSINYNGGYKGYADSVKGRFTISRDNSKNTLYLQMNSLRAEDTAVYYCARSANWHDTALDYWGQGTLVTVSS VL: DIQMTQSPSSLSASVGDRVTITCRASQSILTYLNWYQQKPGKAPKLVIYYASNRASGVPSRFSGSGSGTDFTLTISSLQPEDFATYYCQQSYDSPLTFGGGTKVEIK | 0.361 OD |
| 371_A07 (antibody, V domains shown) VH: EVQLLESGGGLVQPGGSLRLSCAASGFTFSDYSMNWVRQAPGKGLEWVSNINYNGGYKSYADSVKGRFTISRDNSKNTLYLQMNSLRAEDTAVYYCARSANWHDTALDYWGQGTLVTVSS VL: DIQMTQSPSSLSASVGDRVTITCRASQSILSYLNWYQQKPGKAPKLVIYATTSRASGVPSRFSGSGSGTDFTLTISSLQPEDFATYYCQQSYDLPLTFGGGTKVEIK | 0.336 OD |
| 370_E09 (antibody, V domains shown) VH: EVQLLESGGGLVQPGGSLRLSCAASGFTFDDSSMHWVRQAPGKGLEWVSNINYNGGYTGYADSVKGRFTISRDNSKNTLYLQMNSLRAEDTAVYYCAKSANWHDTALDYWGQGTLVTVSS VL: DIQMTQSPSSLSASVGDRVTITCRASQSILSYVNWYQQKPGKAPKLVIYAATSRASGVPSRFSGSGSGTDFTLTISSLQPEDFATYYCQQSYELPLTFGGGTKVEIK | 0.338 OD |
| 370_G09 (antibody, V domains shown) VH: EVQLLESGGGLVQPGGSLRLSCAASGFTFSSYGMNWVRQAPGKGLEWVAGINYNGGYKSYADSVKGRFTISRDNSKNTLYLQMNSLRAEDTAVYYCARSANWHDTALDYWGQGTLVTVSS VL: DIQMTQSPSSLSASVGDRVTITCRASQSILSYVNWYQQKPGKAPKLVIYAATSRASGVPSRFSGSGSGTDFTLTISSLQPEDFATYYCQQSYESPLTFGGGTKVEIK | 0.393 OD |
| 370_G06 (antibody, V domains shown) VH: EVQLLESGGGLVQPGGSLRLSCAASGFTFSDYGMHWVRQAPGKGLEWVSSINYNGGYTSYADSVKGRFTISRDNSKNTLYLQMNSLRAEDTAVYYCARSANWHDTALDYWGQGTLVTVSS VL: DIQMTQSPSSLSASVGDRVTITCRASQSILSYVNWYQQKPGKAPKLVIYAATSRASGVPSRFSGSGSGTDFTLTISSLQPEDFATYYCQQSDNTPLTFGGGTKVEIK | 0.356 OD |
| 370_F07 (antibody, V domains shown) VH: EVQLLESGGGLVQPGGSLRLSCAASGFTFDSYSMNWVRQAPGKGLEWVSNINYNGGYKGYADSVKGRFTISRDNSKNTLYLQMNSLRAEDTAVYYCARSANWHDTALDYWGQGTLVTVSS VL: DIQMTQSPSSLSASVGDRVTITCRASQSILSYLNWYQQKPGKAPKLLIYAATSRASGVPSRFSGSGSGTDFTLTISSLQPEDFATYYCQQSYNLPLTFGGGTKVEIK | 0.384 OD |
| 371_A12 (antibody, V domains shown) VH: EVQLLESGGGLVQPGGSLRLSCAASGFTFDSYSMNWVRQAPGKGLEWVAGINYNSGYTSYADSVKGRFTISRDNSKNTLYLQMNSLRAEDTAVYYCARSANWHDTALDYWGQGTLVTVSS VL: DIQMTQSPSSLSASVGDRVTITCRASQSILSYVNWYQQKPGKAPKLVIYAATSLASGVPSRFSGSGSGTDFTLTISSLQPEDFATYYCQQSYDTPLTFGGGTKVEIK | 0.483 OD |
| 371_A08 (antibody, V domains shown) VH: EVQLLESGGGLVQPGGSLRLSCAASGFTFSSYGMHWVRQAPGKGLEWVSSINYNGGYTSYADSVKGRFTISRDNSKNTLYLQMNSLRAEDTAVYYCARSANWHDTALDYWGQGTLVTVSS VL: DIQMTQSPSSLSASVGDRVTITCRASQSILSYLNWYQQKPGKAPKLVIYAATSRASGVPSRFSGSGSGTDFTLTISSLQPEDFATYYCQQSYELPLTFGGGTKVEIK | 0.304 OD |
| 370_G11 (antibody, V domains shown) VH: EVQLLESGGGLVQPGGSLRLSCAASGFTFSSYSMNWVRQAPGKGLEWVASINYNSGYTSYADSVKGRFTISRDNSKNTLYLQMNSLRAEDTAVYYCARSANWHDTHLDYWGQGTLVTVSS VL: DIQMTQSPSSLSASVGDRVTITCRASQSIVSYLNWYQQKPGKAPKLVIYAATSRASGVPSRFSGSGSGTDFTLTISSLQPEDFATYYCQQSYSLPLTFGGGTKVEIK | 0.529 OD |
| 370_E06 (antibody, V domains shown) VH: EVQLLESGGGLVQPGGSLRLSCAASGFTFSSYGMNWVRQAPGKGLEWVSGINYNSGYKSYADSVKGRFTISRDNSKNTLYLQMNSLRAEDTAVYYCARSANWHDTALDYWGQGTLVTVSS VL: DIQMTQSPSSLSASVGDRVTITCRASQSILSYLNWYQQKPGKAPKLVIYATTSLASGVPSRFSGSGSGTDFTLTISSLQPEDFATYYCQQSYDTPLTFGGGTKVEIK | 0.375 OD |
| 370_F10 (antibody, V domains shown) VH: EVQLLESGGGLVQPGGSLRLSCAASGFTFSSYSMNWVRQAPGKGLEWVAGINYNGGYTSYADSVKGRFTISRDNSKNTLYLQMNSLRAEDTAVYYCARSANWHDTALDYWGQGTLVTVSS VL: DIQMTQSPSSLSASVGDRVTITCRASQSIVSYLNWYQQKPGKAPKLVIYAATSRASGVPSRFSGSGSGTDFTLTISSLQPEDFATYYCQQSYNSPLTFGGGTKVEIK | 0.441 OD |
| 370_H09 (antibody, V domains shown) VH: EVQLLESGGGLVQPGGSLRLSCAASGFTFSSYGMNWVRQAPGKGLEWVANINYNGGYTSYADSVKGRFTISRDNSKNTLYLQMNSLRAEDTAVYYCARSANWHDTALDYWGQGTLVTVSS VL: DIQMTQSPSSLSASVGDRVTITCRASQSIVSYVNWYQQKPGKAPKLLIYAATSRASGVPSRFSGSGSGTDFTLTISSLQPEDFATYYCQQSYDNPLTFGGGTKVEIK | 0.348 OD |
| 370_H01 (antibody, V domains shown) VH: EVQLLESGGGLVQPGGSLRLSCAASGFTFSSYSMNWVRQAPGKGLEWVSGINYNSGYKGYADSVKGRFTISRDNSKNTLYLQMNSLRAEDTAVYYCARSANWHDTALDYWGQGTLVTVSS VL: DIQMTQSPSSLSASVGDRVTITCRASQSIISYLNWYQQKPGKAPKLLIYAVTSRASGVPSRFSGSGSGTDFTLTISSLQPEDFATYYCQQSYDTPLTFGGGTKVEIK | 0.436 OD |
| 371_A03 (antibody, V domains shown) VH: EVQLLESGGGLVQPGGSLRLSCAASGFTFSDYGMNWVRQAPGKGLEWVANINYNGGYTGYADSVKGRFTISRDNSKNTLYLQMNSLRAEDTAVYYCARSANWHDTALDYWGQGTLVTVSS VL: DIQMTQSPSSLSASVGDRVTITCRASQSILSYLNWYQQKPGKAPKLVIYATTSRASGVPSRFSGSGSGTDFTLTISSLQPEDFATYYCQQSYESPLTFGGGTKVEIK | 0.354 OD |
